Reference: patent publication US20180360932A1 (OPKO BIOLOGICS, published 2018)

Legend:
Factor X = Factor X (UniProt P00742); assay: cell-based or functional assay
MOD-5000/TF complex [1] = target: MOD-5000/TF complex (UniProt P08709); assay: cell-based or functional assay
MOD-5014/TF complex [2] = target: MOD-5014/TF complex (UniProt P13726); assay: cell-based or functional assay
MOD-5000/TF complex [3] = target: MOD-5000/TF complex (UniProt P08709)
MOD-5014/TF complex [4] = target: MOD-5014/TF complex (UniProt P13726)
MOD-5000/TF complex [5] = target: MOD-5000/TF complex (UniProt P08709); assay: FX activation kinetics of the FVIIa/TF complex (FVIIa 1 nM, TF 5 pM, FX 0-1500 nM, Pefachrome FXa)
MOD-5014/TF complex [6] = target: MOD-5014/TF complex (UniProt P13726); assay: as above
[7] = target: MOD-5014 (FVIIa-CTP3, activated Factor VII-CTP-CTP-CTP) (human) (UniProt P08709); assay: cell-based or functional assay
[8] = target: Recombinant human FVIIa (NovoSeven) (human) (UniProt P08709); assay: cell-based or functional assay

Sequence of Factor X (P00742 41-488 limits assumed): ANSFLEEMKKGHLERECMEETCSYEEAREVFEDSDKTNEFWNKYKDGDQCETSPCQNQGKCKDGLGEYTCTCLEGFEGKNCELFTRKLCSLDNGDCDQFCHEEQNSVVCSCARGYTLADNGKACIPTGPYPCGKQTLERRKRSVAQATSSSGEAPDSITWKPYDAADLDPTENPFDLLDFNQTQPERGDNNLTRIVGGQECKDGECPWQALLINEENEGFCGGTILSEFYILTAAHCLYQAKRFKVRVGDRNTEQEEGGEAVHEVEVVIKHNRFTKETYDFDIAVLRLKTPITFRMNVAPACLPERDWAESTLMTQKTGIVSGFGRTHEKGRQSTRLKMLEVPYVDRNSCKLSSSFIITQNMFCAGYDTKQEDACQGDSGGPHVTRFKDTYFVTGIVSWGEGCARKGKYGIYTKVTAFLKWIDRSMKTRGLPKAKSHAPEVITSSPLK
Sequence of Factor X (FX) (chain): as the sequence (P00742 41-488 limits assumed) above

## NovoSeven (commercial recombinant human FVIIa) (from UniProt P08709 61-212; P08709 213-466) (enzyme)
Factor X
  O.D, FX activation (chromogenic), rFVIIa 0.0320 ng/ml: 0.138 O.D
  O.D, FX activation (chromogenic), rFVIIa 0.160 ng/ml: 0.178 O.D
  O.D, FX activation (chromogenic), rFVIIa 0.80 ng/ml: 0.303 O.D
  O.D, FX activation (chromogenic), rFVIIa 4.00 ng/ml: 0.352 O.D
  O.D, FX activation (chromogenic), rFVIIa 20.00 ng/ml: 0.365 O.D
  O.D, FX activation (chromogenic), rFVIIa 100.00 ng/ml: 0.363 O.D

## Anti-thrombin (AT) (from UniProt P01008 33-464)
MOD-5000/TF complex [1]
  K (rate constant of the loss of FVIIa/TF activity with AT 1 uM and heparin 5 U/mL): 0.354 Min·^1
MOD-5014/TF complex [2]
  K (rate constant of the loss of FVIIa/TF activity with AT 1 uM and heparin 5 U/mL): 0.217 Min·^1

## Factor X (FX)
MOD-5000/TF complex [3]
  Vmax (rate of FX activation by the FVIIa/TF complex as a function of FX concentration): 1.78 nM FXa/min
MOD-5014/TF complex [4]
  Vmax (rate of FX activation by the FVIIa/TF complex as a function of FX concentration): 1.64 nM FXa/min
MOD-5000/TF complex [5]
  Km: 0.14 µM
MOD-5014/TF complex [6]
  Km: 0.12 µM

## Anti-thrombin III (AT III) (from UniProt P01008 33-464)
[7]
  IC50 of anti-thrombin on FX activation (chromogenic), 0.7 ng/ml FVIIa, 1 U/µl heparin: 49.6 µg/mL
[8]
  IC50 of anti-thrombin on FX activation (chromogenic), 0.7 ng/ml FVIIa, 1 U/µl heparin: 65.7 µg/mL
